Target: HA of BPL-inactivated virus preparation of strain A/New Caledonia/20/99 (H1N1) (influenza A virus A/New Caledonia/20/99 (H1N1))
Assay: ELISA, coated inactivated virus, IgG 5 µg/ml

B1: CR6329 (antibody, V domains shown)
VH: EVQLVQSGAEVKKPGSSVKVSCKASGGIFRSNSISWVRQAPGQGLEWMGGIFALFGTTDYAQKFQGRVTITADESSTTVYLELSSLTSEDTAVYYCARGSGYTTRNYFDYWGQGTLVTVSS
VL: EIVLTQSPGTLSLSPGERATLSCRASQSVSSNYLGWYQQKPGQAPRLLIYGASSRASGIPDRFSGGGSGTDFTLTISRLEPEDFAVYYCQQYGSSPLTFGGGTKVEIKR
OD 492 nm: 1.04 OD 492 nm
